Article doi:10.1101/2023.12.21.572918 (bioRxiv, 2023)

Biological target: full length native GPC (strain Josiah) expressed on HEK293 cells (Lassa virus, strain Josiah, UniProt P08669)
Assay: flow cytometry on cells
Conditions: one partner purified

Sequence of full length native GPC (strain Josiah) expressed on HEK293 cells (P08669 whole entry, looked up): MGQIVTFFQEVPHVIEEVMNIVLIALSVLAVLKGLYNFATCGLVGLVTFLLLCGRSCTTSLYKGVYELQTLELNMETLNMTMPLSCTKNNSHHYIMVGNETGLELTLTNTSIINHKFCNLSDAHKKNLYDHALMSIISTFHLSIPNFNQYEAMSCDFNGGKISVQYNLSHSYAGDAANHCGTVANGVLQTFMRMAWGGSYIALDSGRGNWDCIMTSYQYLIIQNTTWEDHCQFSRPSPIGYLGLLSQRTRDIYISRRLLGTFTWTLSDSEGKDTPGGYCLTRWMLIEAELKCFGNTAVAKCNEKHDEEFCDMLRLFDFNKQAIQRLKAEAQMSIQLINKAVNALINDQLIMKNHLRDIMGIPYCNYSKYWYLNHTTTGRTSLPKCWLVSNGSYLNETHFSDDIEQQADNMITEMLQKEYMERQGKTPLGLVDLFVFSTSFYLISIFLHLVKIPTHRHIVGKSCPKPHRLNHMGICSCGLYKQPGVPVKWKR

B1: 25.10C IgG (antibody, V domains shown)
VH: QVQLQESGGGLVKPGGSLRLSCTASGFNFNKYNMNWVRQAPGKGLEWVSSISALSTYIYYADSLKGRFTVSRDNAKNSLFLQMNSLRDDDTAVYYCAREIRRASTWSADLWGRGTLVTVSS
VL: DIQMTQSPSSLSASVGDRVIITCRASQSISSSLNWYQQKPGKAPKLLIYAAVNLETGVPSRFSGSGFGTDFTLAISNVQPEDFATYYCQQSDTRTFGRGTKLDVK
  binding result: binds
